Substrate: O=c1ccn([C@H]2C[C@H](O)[C@@H](COP(=O)(O)O)O2)c(=O)[nH]1
Assay: purified protein
Format: biochemical, Escherichia coli
Conditions: 25 °C, CH2H4folate fixed at 50 μM, TCEP

B1: ecTSase (Escherichia coli thymidylate synthase) (Escherichia coli K-12; H147V) (protein)
chain: MKQYLELMQKVLDEGTQKNDRTGTGTLSIFGHQMRFNLQDGFPLVTTKRCHLRSIIHELLWFLQGDTNIAYLHENNVTIWDEWADENGDLGPVYGKQWRAWPTPDGRHIDQITTVLNQLKNDPDSRRIIVSAWNVGELDKMALAPCVAFFQFYVADGKLSCQLYQRSCDVFLGLPFNIASYALLVHMMAQQCDLEVGDFVWTGGDTHLYSNHMDQTHLQLSREPRPLPKLIIKRKPESIFDYRFEDFEIEGYDPHPGIKAPVAI
With B1 the Km was 4.0 ± 1.3 µM and the kcat was 0.61 ± 0.04 s⁻¹.
